Measured values reported in patent US20120003668A1, “HIGH RESOLUTION COMPLEX STRUCTURE AND ALLOSTERIC EFFECTS OF LOW MOLECULAR WEIGHT ACTIVATORS ON THE PROTEIN KINASE PDK1” (UNIVERSITAET DES SAARLANDES, priority 2008, published 2012).
Changes are numbered by the printed parent chain. Entries after “also recorded” stand apart in the source; their conditions may differ. Each block holds one molecule with its values, some of them ahead of it. Non-standard residues stand in square brackets, D forms with d. Residues, ends and D or L forms follow the SMILES beside them. *: point of attachment. Biotin = O=C1N[C@H]2[C@H](CS[C@H]2CCCCC(=O)*)N1; pT = C[C@@H](OP(=O)(O)O)[C@H](N)C(=O)O; pS = N[C@@H](COP(=O)(O)O)C(=O)O

T1: PDK1 catalytic domain (Homo sapiens, UniProt O15530)
T1 construct: The catalytic domain (CD) of PDK1 50-359 and its mutants
T1 sequence (O15530 50-359): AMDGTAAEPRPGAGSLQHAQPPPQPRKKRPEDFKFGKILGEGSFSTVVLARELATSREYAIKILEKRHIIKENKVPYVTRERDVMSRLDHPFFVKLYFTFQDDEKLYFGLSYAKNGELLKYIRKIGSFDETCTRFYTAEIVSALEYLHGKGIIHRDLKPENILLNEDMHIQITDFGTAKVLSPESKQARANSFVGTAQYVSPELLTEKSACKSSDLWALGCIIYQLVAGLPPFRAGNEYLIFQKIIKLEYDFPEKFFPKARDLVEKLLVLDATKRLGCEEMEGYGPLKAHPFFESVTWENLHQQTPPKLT

T2: PDK1 CD wt (Homo sapiens, UniProt O15530)
T2 construct: PDK1 CD (50-359), wt (0.35 μM), PDK1 [Phe224Trp] or PDK1 [Thr226Trp] were injected onto the system; GST (N); made in house; host or cells: insect cells
T2 sequence (O15530 50-359): T1 sequence (O15530 50-359)

T3: PIFtide
T3 chain: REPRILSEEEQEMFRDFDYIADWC

T4: biotin-PIFtide (biotin (position not given))
T4 construct: Biotinylated PIFtide
T4 peptide: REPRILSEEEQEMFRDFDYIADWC

B1: PDK1 CD (50-359) [Phe224Trp] (enzyme)
chain: T1 sequence (O15530 50-359) with F175W
notes: also called PDK1[Phe224Trp]; PDK1 Phe224Trp
B2: PDK1 CD (50-359) [Thr226Trp] (enzyme)
chain: T1 sequence (O15530 50-359) with T177W
notes: also called PDK1[Thr226Trp]; PDK1 Thr226Trp
B3: PIFtide (peptide)
peptide: REPRILSEEEQEMFRDFDYIADWC
notes: also called HM-polypeptide PIFtide
B4: PDK1 CD (50-359) wt (enzyme)
chain: GPMDGTAAEPRPGAGSLQHAQPPPQPRKKRPEDFKFGKILGEGSFSTVVLARELATSREYAIKILEKRHIIKENKVPYVTRERDVMSRLDHPFFVKLYFTFQDDEKLYFGLSYAKNGELLKYIRKIGSFDETCTRFYTAEIVSALEYLHGKGIIHRDLKPENILLNEDMHIQITDFGTAKVLSPESKQARANSFVGTAQYVSPELLTEKSACKSSDLWALGCIIYQLVAGLPPFRAGNEYLIFQKIIKLEYDFPEKFFPKARDLVEKLLVLDATKRLGCEEMEGYGPLKAHPFFESVTWENLHQQTPPKLTA
notes: also called PDK1 50-359; PDK1 CD wt

Experiments:
PDK1 catalytic domain = target: T1, PDK1 catalytic domain; assay: TNP-ATP fluorescence probing of the ATP binding site conformation; format: biochemical; settings: 40 μM TNP-ATP, 15 μM PDK1 catalytic domain
Excerpt: Probing the conformation of the ATP binding site in PDK1: The activation of PDK1 by HM-polypeptides and small compounds is due to a change in the conformation of the enzyme. We probed the conformation of the ATP binding site in PDK1 by scanning the steady-state fluorescence of TNP-ATP/PDK1, in the presence or absence of P-HM-polypeptides, PIFtide, or small molecular weight compounds. Data were obtained in a Varian Cary Eclipse spectrofluorometer (excitation λ=479 nm; emission scanning, λ=500-600 nm; excitation slit=10 nm; emission slit=10 nm) at a rate of 200 nm/min, with 150 datapoints/100 nm scanning and 0.3 s averaging time. The incubation was performed at 20° C. in a buffer containing 50 mM Tris pH 7.5, 0.1 mM EDTA, 187 mM NaCl, 40 μM TNP-ATP, 15 μM PDK1 catalytic domain, 1 mM DTT and 1% DMSO. In the absence of PDK1, TNP-ATP produced approximately 1.5 arbitrary units (a.u.) of fluorescence, and the inclusion of PDK1 increased its fluorescence intensity to approximately 3.3 a.u. […] In preliminary tests, inclusion of 2.5 mM MgCl2 in the assay mix produced similar results. Data for each condition are the average of 3 scans.

PDK1 = PDK1 protein kinase activity test with T308tide substrate; format: biochemical, human
Experimental: In brief, PDK1 activity assay was performed at room temperature (22° C.) in a 20 μl mix containing 50 mM Tris pH 7.5, 0.05 mg/ml BSA, 0.1% β-mercaptoethanol, 10 mM MgCl2, 100 μM [γ^32P]ATP (5-50 cpm/pmol), 0.003% Brij, 150 ng PDK1, and T308tide (from 0.1 to 1 mM). […] Experiments were repeated at least twice.

PDK1 CD wt = target: T2, PDK1 CD wt; assay: Surface plasmon resonance (BiaCore) on biotin-P-HM-S6K chip; format: binding; settings: estimated from response units at equilibrium; read-out: Kd of direct binding of PDK1 CD wt to immobilized peptide
Experimental: Surface Plasmon resonance (BiaCore) and alpha-screen interaction and displacement assays: Binding of GST-PDK1 to a P-HM-polypeptide derived from S6K1 shown in FIG. 6 was analysed by surface plasmon resonance on a BiaCore 3000 system using a streptavidin-coated Sensor chip (SA) and biotin-P-HM-polypeptide, as previously described (Biondi, R. M. et al., Embo. J. 20:4380-4390 (2001). The interaction of His-PDK1 with biotin-PIFtide and the displacement by compounds shown in FIG. 3 was performed using the alpha-screen Ni-Chelate kit (Perkin Elmer) on an Envision 2104 multilabel system (Perkin Elmer).
BiaCore analysis was performed as described previously (Biondi, R. M. et al., Embo. J. 19:979-988 (2000)). […] Since both mutants were performed on the same construct of PDK1, their mass should be very similar and therefore should also produce 600RU when all biotin-(P)HM-S6K polypeptides on the same chip are bound to the mutant PDK1 proteins. Unfortunately, when mutant PDK1 Phe224Trp and PDK1 Thr226Trp were analysed, the injection of the mutants at concentrations higher than 1.3 μM prompted unspecific effects, therefore making difficult the evaluation. […]

[1] = target: biotin-P-HM-polypeptide derived from S6K1; assay: SPR (BiaCore), biotin-P-HM-S6K chip; injected at 1.8 vs 1.3 µM
PIFtide = target: T3, PIFtide
[2] = target: biotin-P-HM-polypeptide derived from S6K1; assay: SPR (BiaCore), biotin-P-HM-S6K on streptavidin chip; mutant injected at 1.3 or 1.8 µM (which mutant at which concentration is not stated)
[3] = target: biotin-P-HM-polypeptide derived from S6K1; assay: SPR (BiaCore), immobilised biotin-P-HM-S6K
biotin-PIFtide = target: T4, biotin-PIFtide; assay: SPR (BiaCore), immobilised biotin-PIFtide
PDK1 CD (50-359) wt = target: B4; assay: SPR competition (BiaCore): PDK1 CD wt pre-incubated with PIFtide, then injected over immobilised biotin-P-HM-S6K; PIFtide displaces PDK1 from biotin-P-HM-S6K
[4] = target: B1; assay: SPR competition (BiaCore): PDK1 [Phe224Trp] pre-incubated with PIFtide, then injected over immobilised biotin-P-HM-S6K; PIFtide displaces PDK1 from biotin-P-HM-S6K
[5] = target: B2; assay: SPR competition (BiaCore): PDK1 [Thr226Trp] pre-incubated with PIFtide, then injected over immobilised biotin-P-HM-S6K; PIFtide displaces PDK1 from biotin-P-HM-S6K
[6] = target: biotin-P-HM-polypeptide derived from S6K1; assay: SPR (BiaCore 3000), biotin-P-HM-S6K on streptavidin chip, equilibrium responses
[7] = target: biotin-P-HM-polypeptide derived from S6K1; assay: SPR (BiaCore 3000), biotin-P-HM-S6K on streptavidin chip

biotin-P-HM-polypeptide derived from S6K1, sequence (peptide, as listed by the source limits assumed): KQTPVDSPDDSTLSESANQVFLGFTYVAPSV

activation of PDK1 (PDK1; T308tide as substrate): nor did they activate PDK1
Molecule: O=C(O)/C=C(\CCc1ccc(Br)cc1F)c1ccccc1 [PS133]
effect on TNP-ATP fluorescence intensity in the presence of PDK1 (PDK1 catalytic domain): did not produce any decrease; also recorded: did not affect

Molecule: CC(C)C[C@H](NC(=O)[C@H](Cc1ccccc1)NC(=O)[C@@H](NC(=O)[C@H](CCC(N)=O)NC(=O)[C@H](CC(N)=O)NC(=O)[C@H](C)NC(=O)[C@H](CO)NC(=O)[C@H](CCC(=O)O)NC(=O)[C@H](CO)NC(=O)[C@H](CC(C)C)NC(=O)[C@@H](NC(=O)[C@H](CO)NC(=O)[C@H](CC(=O)O)NC(=O)[C@H](CC(=O)O)NC(=O)[C@@H]1CCCN1C(=O)[C@H](COP(=O)(O)O)NC(=O)[C@H](CC(=O)O)NC(=O)[C@@H](NC(=O)[C@@H]1CCCN1C(=O)[C@@H](NC(=O)[C@H](CCC(N)=O)NC(=O)[C@H](CCCCN)NC(=O)CCCC[C@@H]1SC[C@@H]2NC(=O)N[C@@H]21)[C@@H](C)O)C(C)C)[C@@H](C)O)C(C)C)C(=O)NCC(=O)N[C@@H](Cc1ccccc1)C(=O)N[C@H](C(=O)N[C@@H](Cc1ccc(O)cc1)C(=O)N[C@H](C(=O)N[C@@H](C)C(=O)N1CCC[C@H]1C(=O)N[C@@H](CO)C(=O)N[C@H](C(=O)O)C(C)C)C(C)C)[C@@H](C)OP(=O)(O)O [biotin-P-HM-S6K] (Biotin-KQTPVD[pS]PDDSTLSESANQVFLGF[pT]YVAPSV-OH; N-terminus and C-terminus assumed)
Kd (PDK1 CD wt): 500 nM

Molecule: KTFCGTPEYLAPEVRR [T308tide, polypeptide substrate of PDK1 derived from the PDK1 phosphorylation site on PKB]
Km (PDK1; estimated, 22° C.): > 10 mM

Molecule: B1
response units [1]: 200 RU | PDK1 activity, T308tide as substrate (PIFtide): the wild type protein and PDK1[Phe224Trp] were activated by PIFtide | stated: activates; PDK1 activity (%) with T308tide as substrate (PIFtide): The bar without PIFtide is at 100 %. The two hatched PIFtide bars (labelled 2.5 and 40 µM) are both between 440 and 480 %. | response units [2]: > 200 RU | percent of maximal binding of the wild type protein [3]: 50% | percent of maximal binding of the wild type protein (biotin-PIFtide): ~50%

Molecule: B2
response units [1]: 200 RU | PDK1 activity, T308tide as substrate (PIFtide): PDK1[Thr226Trp] was not activated by PIFtide | stated: no activation; PDK1 activity (%) with T308tide as substrate (PIFtide): The bar without PIFtide is at 100 %. The two hatched PIFtide bars (labelled 2.5 and 40 µM) stay at about 100 %. | response units [2]: > 200 RU | percent of maximal binding of the wild type protein [3]: 50% | percent of maximal binding of the wild type protein (biotin-PIFtide): ~50%

Molecule: B3
binding result (PDK1 CD (50-359) wt): binds | binding result [4]: binds | binding result [5]: binds

Molecule: B4
PDK1 activity, T308tide as substrate (PIFtide): the wild type protein and PDK1[Phe224Trp] were activated by PIFtide | stated: activates; PDK1 activity (%) with T308tide as substrate (PIFtide): The bar without PIFtide is at 100 %. The two hatched PIFtide bars (labelled 2.5 and 40 µM) are both between 350 and 400 %, with little difference between them. | Kd [6]: 500 nM | response units at maximum binding (PDK1 injected at 5.4 µM) [7]: 600 RU | percent of maximal binding of the wild type protein [3]: 50% | percent of maximal binding of the wild type protein (biotin-PIFtide): ~50%
